# According to patent EP3470428A1:
# B1: PRO1126: 38-02-A04 sc01 scDb-i/33_03_G02 sc03 Full scDb-o (bispecific antibody)
# chain: DFQLTQSPSSLSASVGDRVTITCQASQSINDYLAWYQQKPGKSPKLLIYKASTLASGVPSRFSGSGSGTDFTLTISSLQPEDFATYYCQQGYIITDIDNVFGTGTKVTVLGGGGGSQVQLQESGPGLVKPSETLSLTCKVSGFSFSNSYWICWIRQPPGKGLEWIGCTFVGSSDSTYYANWAKGRVTISVDSSKNQFSLKLSSVTAADTAVYYCARHPSDAVYGYANNLWGQGTLVTVSSGGGGSGGGGSGGGGSGGGGSIQMTQSPSSLSASVGDRVTITCQASQSINNVLAWYQQKPGKAPKLLIYRASTLASGVPSRFSGSGSGTDFTLTISSLQPEDFATYYCQSSYGNYGDFGTGTKVTVLGGGGGSQSQLQESGPGLVKPSETLSLTCKASGFSFSSGYDMCWVRQPPGKGLEWIACVVAGSVDITYYASWAKGRVTISKDSSKNQVSLKLSSVTAADTAVYFCARKDAYSDAFNLWGQGTLVTVSS
# B2: PRO1124: 38-02-A04 sc06 Full scDb-i/33_03_G02 sc01 scDb-o (bispecific antibody)
# chain: DIQMTQSPSSLSASVGDRVTITCQASQSINDYLAWYQQKPGKAPKLLIYKASTLASGVPSRFSGSGSGTDFTLTISSLQPEDFATYYCQQGYIITDIDNVFGTGTKVTVLGGGGGSQVQLQESGPGLVKPSETLSLTCKASGFSFSNSYWICWVRQPPGKGLEWIGCTFVGSSDSTYYANWAKGRVTISKDSSKNQVSLKLSSVTAADTAVYFCARHPSDAVYGYANNLWGQGTLVTVSSGGGGSGGGGSGGGGSGGGGSLQMTQSPSSLSASVGDRVTITCQASQSINNVLAWYQQKPGKPPKLLIYRASTLASGVPSRFSGSGSGTDFTLTISSLQPEDFATYYCQSSYGNYGDFGTGTKVTVLGGGGGSQVQLQESGPGLVKPSETLSLTCKVSGFSFSSGYDMCWIRQPPGKGLEWIGCVVAGSVDITYYASWAKGRVTISVDSSKNQFSLKLSSVTAADTAVYYCARKDAYSDAFNLWGQGTLVTVSS
# Experiments:
# [1] = biological target: human PD-L1-Fc chimeric protein (human) (UniProt Q9NZQ7); test: SPR (Biacore T200); PD-L1-Fc captured by anti-human Fc
# [2] = biological target: human CD137-Fc chimeric protein (human) (UniProt Q07011); test: SPR (Biacore T200); CD137-Fc captured by anti-human Fc
# human CD137-Fc chimeric protein (human), sequence (Q07011 24-186, stated change not applied): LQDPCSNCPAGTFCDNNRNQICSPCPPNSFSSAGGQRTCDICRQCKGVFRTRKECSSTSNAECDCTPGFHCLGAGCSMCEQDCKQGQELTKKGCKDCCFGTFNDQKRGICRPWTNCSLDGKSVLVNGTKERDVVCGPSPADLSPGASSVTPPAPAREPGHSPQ
Binder,fold improvement in affinity against the CDR graft (PRO885) [1] [fold],fold improvement of affinity against PRO885 [2] [fold]
B1,20,
B2,,> 200
